In patent publication US20230250154A1 (CYTONICS, published 2023):

T1: MMP1 (human, UniProt P03956 100-469, limits assumed)
T1 sequence (looked up): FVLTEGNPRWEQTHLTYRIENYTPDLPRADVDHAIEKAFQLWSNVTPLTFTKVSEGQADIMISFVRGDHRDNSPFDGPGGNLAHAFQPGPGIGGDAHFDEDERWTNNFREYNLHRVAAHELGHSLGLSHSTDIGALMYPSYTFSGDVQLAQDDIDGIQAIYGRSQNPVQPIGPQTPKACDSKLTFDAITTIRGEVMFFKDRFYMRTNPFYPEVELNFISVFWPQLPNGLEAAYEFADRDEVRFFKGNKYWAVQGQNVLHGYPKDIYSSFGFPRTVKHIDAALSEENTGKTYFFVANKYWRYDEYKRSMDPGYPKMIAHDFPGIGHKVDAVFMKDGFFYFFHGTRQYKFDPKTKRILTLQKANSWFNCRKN

T2: ADAMTS5 (human, UniProt Q9UNA0 262-622, limits assumed)
T2 sequence (looked up): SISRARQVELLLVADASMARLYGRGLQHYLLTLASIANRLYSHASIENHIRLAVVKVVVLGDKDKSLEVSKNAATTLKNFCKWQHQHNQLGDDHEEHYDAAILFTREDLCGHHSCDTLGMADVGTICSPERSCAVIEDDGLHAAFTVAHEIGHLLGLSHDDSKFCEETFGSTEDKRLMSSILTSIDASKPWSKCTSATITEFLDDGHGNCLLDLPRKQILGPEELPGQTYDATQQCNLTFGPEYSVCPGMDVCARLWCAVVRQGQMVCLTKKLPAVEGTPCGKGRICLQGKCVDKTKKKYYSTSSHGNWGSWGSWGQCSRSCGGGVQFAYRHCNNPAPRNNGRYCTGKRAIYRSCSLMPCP

T3: MMP2 (human, UniProt P08253 110-660, limits assumed)
T3 sequence (looked up): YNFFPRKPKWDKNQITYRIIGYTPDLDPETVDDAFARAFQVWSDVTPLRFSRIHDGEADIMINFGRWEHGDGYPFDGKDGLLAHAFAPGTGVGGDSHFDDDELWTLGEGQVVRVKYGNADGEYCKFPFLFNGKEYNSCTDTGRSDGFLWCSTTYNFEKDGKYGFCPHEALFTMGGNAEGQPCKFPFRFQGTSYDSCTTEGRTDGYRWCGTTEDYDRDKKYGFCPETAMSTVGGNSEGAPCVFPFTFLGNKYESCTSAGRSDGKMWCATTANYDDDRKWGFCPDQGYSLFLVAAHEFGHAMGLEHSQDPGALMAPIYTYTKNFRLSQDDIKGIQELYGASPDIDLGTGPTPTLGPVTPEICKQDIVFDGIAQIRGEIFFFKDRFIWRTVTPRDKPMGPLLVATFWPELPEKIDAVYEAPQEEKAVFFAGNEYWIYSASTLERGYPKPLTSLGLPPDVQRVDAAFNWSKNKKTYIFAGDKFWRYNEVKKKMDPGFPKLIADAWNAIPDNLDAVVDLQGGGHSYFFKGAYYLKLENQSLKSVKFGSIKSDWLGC

T4: MMP7 (UniProt P09237 95-267, limits assumed)
T4 sequence (looked up): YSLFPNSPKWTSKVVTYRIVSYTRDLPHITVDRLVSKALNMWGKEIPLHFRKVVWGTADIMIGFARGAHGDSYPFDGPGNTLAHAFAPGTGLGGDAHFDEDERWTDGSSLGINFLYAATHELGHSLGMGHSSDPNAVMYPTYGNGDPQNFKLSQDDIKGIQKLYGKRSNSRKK

T5: Cathepsin G (UniProt P08311 21-244)
T5 sequence (looked up): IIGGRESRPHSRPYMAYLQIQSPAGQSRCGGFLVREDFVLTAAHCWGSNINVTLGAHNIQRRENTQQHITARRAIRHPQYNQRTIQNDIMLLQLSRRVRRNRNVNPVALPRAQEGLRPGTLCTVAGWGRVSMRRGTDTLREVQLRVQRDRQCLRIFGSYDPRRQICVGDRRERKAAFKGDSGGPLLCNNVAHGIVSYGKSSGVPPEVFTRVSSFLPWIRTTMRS

B1: Variant A2M, bait region SEQ ID NO 19 (other)
chain: SVSGKPQYMVLVPSLLHTETTEKGCVLLSYLNETVTVSASLESVRGNRSLFTDLEAENDVLHCVAFAVPKSSSNEEVMFLTVQVKGPTQEFKKRTTVMVKNEDSLVFVQTDKSIYKPGQTVKFRVVSMDENFHPLNELIPLVYIQDPKGNRIAQWQSFQLEGGLKQFSFPLSSEPFQGSYKVVVQKKSGGRTEHPFTVEEFVLPKFEVQVTVPKIITILEEEMNVSVCGLYTYGKPVPGHVTVSICRKYSDASDCHGEDSQAFCEKFSGQLNSHGCFYQQVKTKVFQLKRKEYEMKLHTEAQIQEEGTVVELTGRQSSEITRTITKLSFVKVDSHFRQGIPFFGQVRLVDGKGVPIPNKVIFIRGNEANYYSNATTDEHGLVQFSINTTNVMGTSLTVRVNYKDRSPCYGYQWVSEEHEEAHHTAYLVFSPSKSFVHLEPMSHELPCGHTQTVQAHYILNGGTLLGLKKLSFYYLIMAKGGIVRTGTHGLLVKQEDMKGHFSISIPVKSDIAPVARLLIYAVLPTGDVIGDSAKYDVENCLANKVDLSFSPSQSLPASHAHLRVTAAPQSVCALRAVDQSVLLMKPDAELSASSVYNLLPEKDLTGFPGPLNDQDDEDCINRHNVYINGITYTPVSSTNEKDMYSFLEDMGLKAFTNSKIRKPKMCPQLEHGPEGEGEGEFRGVTIPENFYGVSEDLVVQISELEGRGSVEEPHTKLRKYFPETWIWDLVVVNSAGVAEVGVTVPDTITEWKAGAFCLSEDAGLGISSTASLRAFQPFFVELTMPYSVIRGEAFTLKATVLNYLPKCIRVSVQLEASPAFLAVPVEKEQAPHCICANGRQTVSWAVTPKSLGNVNFTVSAEALESQELCGTEVPSVPEHGRKDTVIKPLLVEPEGLEKETTFNSLLCPSGGEVSEELSLKLPPNVVEESARASVSVLGDILGSAMQNTQNLLQMPYGCGEQNMVLFAPNIYVLDYLNETQQLTPEIKSKAIGYLNTGYQRQLNYKHYDGSYSTFGERYGRNQGNTWLTAFVLKTFAQARAYIFIDEAHITQALIWLSQRQKDNGCFRSSGSLLNNAIKGGVEDEVTLSAYITIALLEIPLTVTHPVVRNALFCLESAWKTAQEGDHGSHVYTKALLAYAFALAGNQDKRKEVLKSLNEEAVKKDNSVHWERPQKPKAPVGHFYEPQAPSAEVEMTSYVLLAYLTAQPAPTSEDLTSATNIVKWITKQQNAQGGFSSTQDTVVALHALSKYGAATFTRTGKAAQVTIQSSGTFSSKFQVDNNNRLLLQQVSLPELPGEYSMKVTGEGCVYLQTSLKYNILPEKEEFPFALGVQTLPQTCDEPKAHTSFQISLSVSYTGSRSASNMAIVDVKMVSGFIPLKPTVKMLERSNHVSRTEVSSNHVLIYLDKVSNQTLSLFFTVLQDVPVRDLKPAIVKVYDYYETDEFAIAEYNAPCSKDLGNADYKDDDDKGASHHHHHH
B2: Variant A2M, bait region SEQ ID NO 27 (other)
chain: SVSGKPQYMVLVPSLLHTETTEKGCVLLSYLNETVTVSASLESVRGNRSLFTDLEAENDVLHCVAFAVPKSSSNEEVMFLTVQVKGPTQEFKKRTTVMVKNEDSLVFVQTDKSIYKPGQTVKFRVVSMDENFHPLNELIPLVYIQDPKGNRIAQWQSFQLEGGLKQFSFPLSSEPFQGSYKVVVQKKSGGRTEHPFTVEEFVLPKFEVQVTVPKIITILEEEMNVSVCGLYTYGKPVPGHVTVSICRKYSDASDCHGEDSQAFCEKFSGQLNSHGCFYQQVKTKVFQLKRKEYEMKLHTEAQIQEEGTVVELTGRQSSEITRTITKLSFVKVDSHFRQGIPFFGQVRLVDGKGVPIPNKVIFIRGNEANYYSNATTDEHGLVQFSINTTNVMGTSLTVRVNYKDRSPCYGYQWVSEEHEEAHHTAYLVFSPSKSFVHLEPMSHELPCGHTQTVQAHYILNGGTLLGLKKLSFYYLIMAKGGIVRTGTHGLLVKQEDMKGHFSISIPVKSDIAPVARLLIYAVLPTGDVIGDSAKYDVENCLANKVDLSFSPSQSLPASHAHLRVTAAPQSVCALRAVDQSVLLMKPDAELSASSVYNLLPEKDLTGFPGPLNDQDDEDCINRHNVYINGITYTPVSSTNEKDMYSFLEDMGLKAFTNSKIRKPKMCPQLEQYEMHGPEGEGEGEGIPENFYGVSEDLYTASELEGRGSVEEPHTKLRKYFPETWIWDLVVVNSAGVAEVGVTVPDTITEWKAGAFCLSEDAGLGISSTASLRAFQPFFVELTMPYSVIRGEAFTLKATVLNYLPKCIRVSVQLEASPAFLAVPVEKEQAPHCICANGRQTVSWAVTPKSLGNVNFTVSAEALESQELCGTEVPSVPEHGRKDTVIKPLLVEPEGLEKETTFNSLLCPSGGEVSEELSLKLPPNVVEESARASVSVLGDILGSAMQNTQNLLQMPYGCGEQNMVLFAPNIYVLDYLNETQQLTPEIKSKAIGYLNTGYQRQLNYKHYDGSYSTFGERYGRNQGNTWLTAFVLKTFAQARAYIFIDEAHITQALIWLSQRQKDNGCFRSSGSLLNNAIKGGVEDEVTLSAYITIALLEIPLTVTHPVVRNALFCLESAWKTAQEGDHGSHVYTKALLAYAFALAGNQDKRKEVLKSLNEEAVKKDNSVHWERPQKPKAPVGHFYEPQAPSAEVEMTSYVLLAYLTAQPAPTSEDLTSATNIVKWITKQQNAQGGFSSTQDTVVALHALSKYGAATFTRTGKAAQVTIQSSGTFSSKFQVDNNNRLLLQQVSLPELPGEYSMKVTGEGCVYLQTSLKYNILPEKEEFPFALGVQTLPQTCDEPKAHTSFQISLSVSYTGSRSASNMAIVDVKMVSGFIPLKPTVKMLERSNHVSRTEVSSNHVLIYLDKVSNQTLSLFFTVLQDVPVRDLKPAIVKVYDYYETDEFAIAEYNAPCSKDLGNADYKDDDDKGASHHHHHH

Key:
Assay in all cases: cell-based or functional assay
MMP1 = target: T1, MMP1
ADAMTS5 = target: T2, ADAMTS5
Elastase = target: Elastase
MMP2 = target: T3, MMP2
MMP9 = MMP9 (human, UniProt P14780 107-707, limits assumed)
MMP3 = MMP3 (human, UniProt P08254 100-477, limits assumed)
MMP7 = target: T4, MMP7
MMP8 = MMP8 (human, UniProt P22894 101-467, limits assumed)
MMP13 = MMP13 (human, UniProt P45452 104-471, limits assumed)
Cathepsin G = target: T5, Cathepsin G

MMP3, sequence (P08254 100-477 limits assumed): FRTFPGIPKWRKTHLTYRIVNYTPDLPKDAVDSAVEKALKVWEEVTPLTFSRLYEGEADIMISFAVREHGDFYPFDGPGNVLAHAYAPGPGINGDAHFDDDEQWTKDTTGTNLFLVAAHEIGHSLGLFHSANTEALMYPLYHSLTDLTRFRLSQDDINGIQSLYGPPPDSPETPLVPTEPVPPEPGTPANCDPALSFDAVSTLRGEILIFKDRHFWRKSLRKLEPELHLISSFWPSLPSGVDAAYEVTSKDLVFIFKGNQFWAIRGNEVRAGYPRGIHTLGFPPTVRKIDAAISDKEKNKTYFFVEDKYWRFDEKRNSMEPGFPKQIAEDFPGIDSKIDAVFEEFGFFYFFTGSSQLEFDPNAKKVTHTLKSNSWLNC
MMP9, sequence (P14780 107-707 limits assumed): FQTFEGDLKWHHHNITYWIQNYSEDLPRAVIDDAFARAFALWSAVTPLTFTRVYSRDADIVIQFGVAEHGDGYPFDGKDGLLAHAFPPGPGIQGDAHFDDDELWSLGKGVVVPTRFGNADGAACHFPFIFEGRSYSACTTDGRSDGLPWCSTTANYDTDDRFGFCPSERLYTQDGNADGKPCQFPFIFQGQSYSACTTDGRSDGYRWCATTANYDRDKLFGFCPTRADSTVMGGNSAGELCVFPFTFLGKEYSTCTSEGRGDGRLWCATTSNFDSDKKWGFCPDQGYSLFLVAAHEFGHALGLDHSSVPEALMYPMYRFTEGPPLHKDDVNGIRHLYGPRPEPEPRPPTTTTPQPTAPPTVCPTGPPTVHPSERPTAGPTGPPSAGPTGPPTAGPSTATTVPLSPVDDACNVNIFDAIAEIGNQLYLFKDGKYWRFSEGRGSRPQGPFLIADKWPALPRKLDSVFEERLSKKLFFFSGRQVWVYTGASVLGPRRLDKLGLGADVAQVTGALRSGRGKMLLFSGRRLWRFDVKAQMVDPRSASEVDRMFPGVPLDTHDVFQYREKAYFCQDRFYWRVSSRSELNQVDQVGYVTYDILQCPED
MMP8, sequence (P22894 101-467 limits assumed): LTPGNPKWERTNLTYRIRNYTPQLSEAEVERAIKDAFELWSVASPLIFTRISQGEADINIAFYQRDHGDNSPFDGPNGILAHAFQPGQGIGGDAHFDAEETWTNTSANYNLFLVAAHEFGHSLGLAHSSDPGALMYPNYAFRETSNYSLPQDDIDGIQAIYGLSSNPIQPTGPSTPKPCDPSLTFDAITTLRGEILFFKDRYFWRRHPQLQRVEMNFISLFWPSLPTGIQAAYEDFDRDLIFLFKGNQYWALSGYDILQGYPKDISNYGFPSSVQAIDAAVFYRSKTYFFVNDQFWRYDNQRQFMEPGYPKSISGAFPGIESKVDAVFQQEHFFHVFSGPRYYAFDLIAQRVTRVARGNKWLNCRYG

Binder | Protease Inhibition (% of WT) (MMP1) | Protease Inhibition (% of WT) (ADAMTS5) | Protease Inhibition (% of WT) (Elastase) | Protease Inhibition (% of WT) (MMP2) | Protease Inhibition (% of WT) (MMP9) | Protease Inhibition (% of WT) (MMP3) | Protease Inhibition (% of WT) (MMP7) | Protease Inhibition (% of WT) (MMP8) | Protease Inhibition (% of WT) (MMP13) | Protease Inhibition (% of WT) (Cathepsin G)
B1 | 100 % of WT | 530 % of WT | 115 % of WT | 36 % of WT | 39 % of WT | 140 % of WT | 137 % of WT | 51 % of WT | 89 % of WT | 90 % of WT
B2 | 109 % of WT | 114 % of WT | 79 % of WT | 16 % of WT | 13 % of WT | 33 % of WT | 138 % of WT | 43 % of WT | 54 % of WT | 161 % of WT
